Results as given in the nanobody polyreactivity screen of Harvey et al. (2022).

Test: yeast display, Sf9 membrane polyspecificity reagent, FACS + sequencing; frameworks hold sequencing errors
Procedure, shortened: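 Synthetic nanobody libraries on Saccharomyces cerevisiae BJ5465 were galactose-induced for 36–48 hours, stained 1 hour at 4 °C with 10% biotinylated, detergent-solubilized Sf9 membrane reagent and enriched on streptavidin microbeads. FACS then separated cells into low and high (top ~1%) gates by anti-HA (expression) and streptavidin (reagent binding) fluorescence. Genes were colony-PCR amplified, MiSeq 2 × 250 sequenced and CDR-length filtered. A clone's polyreactivity label is that of its gate of origin.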
With “QVQLVESGGRLVQAGGSLRLSCAASGITQGYYAMGWYRQAPGKERELVAAISYRGGNTYYADSVKGRFTISRDNAKNTVYLQMNSLKPEDTAVYYCNADLGYESGWWSKYDYWGQGTQVTVSS” the “polyreactivity (PSR sort gate)” value was “low polyreactivity”. With “QVQLVESGGRLVQAGGSLRLSCAASGLIFNDNAMGWYRQAPGKERELVAAISWGGGTTYYADSVKGRFSNSRDNAKYTVFLQMNSLKPEDTAVYYCAAEEAMFYDFYYVLLDYWGQGTQVTVSS” the “polyreactivity (PSR sort gate)” value was “high polyreactivity”. In the case of “QVQLVESGGRLVQAGGSLRLSCAASGLIFRRNAMGWYRQAPGKERELVSAISRSSGSTYYADSVKGRFTISRDYAKNSVYFHMNSLKPDDTAVYYCDAGYRAGPGYGMYSWGQGTQVTVSS”, the “polyreactivity (PSR sort gate)” value is reported as “high polyreactivity”. In the case of “QVQLVESGGRLVQAGGSLRLSCAASGLIFYTYAMGWYRKAPGKERELVADINRSDGSTYYADSVKGRFTISRDNAKNTVYLQMNSLKPEDTAVYYCAVVGPYYSRFGGRYYYWGQGTQVTVSS”, the “polyreactivity (PSR sort gate)” value is reported as “low polyreactivity”. In the case of “QVQLVESGGRLVQAGGSLRLSCAASGLIIDVNTMGWYRQAPGKDRELVAAITGSGGRTYYADSVKGRFTISRDNAKNTVYLQMNSLKPEDSAVYYCNADTSYVGFDFWGQGTQVTVSS”, the “polyreactivity (PSR sort gate)” value is reported as “low polyreactivity”. With “QVQLVESGGRLVQAGGSLRLSCAASGLILLPNTMGWYRQAPGKESEMVAAISYSGGGTYYADSVKARFTISRDNAKNSVYLQMNSLKPEDTAVYYCAAYVKRESAPYGYWGQGTQVTVSS” the “polyreactivity (PSR sort gate)” value was “low polyreactivity”. With “QVQLVESGGRLVQAGGSLRLSCAASGRIFAFYAMGWYRQAPGKERELVAAITSGGSTKYADSVKGRFTISRDNAKNTVYLQMNSLKPEDTAVYYCAAVESGYGSKRFYYWGQGTQVTVSS” the “polyreactivity (PSR sort gate)” value was “high polyreactivity”. In the case of “QVQLVESGGRLVQAGGSLRLSCAASGRIFGDYAMGRYRQAPGKERDLVAAISWSDGSTYYADSVKGRFTISRDNAKNTVYLQMNSLTPEDTAVYYCPAYGWGYRYVDVVVSDFYYWGQGTQVTVSS”, the “polyreactivity (PSR sort gate)” value is reported as “low polyreactivity”. For “QVQLVESGGRLVQAGGSLRLSCAASGRIFTQYAMGWYRQSPGKERELVAAINASDGSTYADSVKGRFTSSRDNAQNTVYLQMKRLKPADTAVYYCNVTGGTYDFTRWSEFDHWGQGTQVTVSS”, the “polyreactivity (PSR sort gate)” value was “low polyreactivity”. For “QVQLVESGGRLVQAGGSLRLSCAASGRIIGVNAMGWYRQAPGKERELVATITSGGSTYADSVKGRFTISRDNAKNTVYLQMNSLKPEDTAVYFCNALIYKRVTRYPYVRLMDYWGQGTQVTVSS”, the “polyreactivity (PSR sort gate)” value was “high polyreactivity”. In the case of “QVQLVESGGRLVQAGGSLRLSCAASGRILYVNNMGWYRQAPGKERELVAGITSRVGSTYYADSVKGRFTISRDNAKNTVYLQMNSLKPEDSAVYYCNARSTWRHRRDQVDFDYWGQGTQVSVSS”, the “polyreactivity (PSR sort gate)” value is reported as “low polyreactivity”. With “QVQLVESGGRLVQAGGSLRLSCAASGRTFGYYAKGLSRQAQGKEREFVAAISFRTTSTYYADSVKGRFTISRDNAKNTVYLQMISLKPEDTAVYYCNVVVKGAWDYYPYDYWGQGPQVTVSS” the “polyreactivity (PSR sort gate)” value was “high polyreactivity”. With “QVQLVESGGRLVQAGGSLRLSCAASGRTFIGYARGWYRQAPGKERELVAGISWSGGSTYYADSVKGRFTISRDNAKNTVYLQMNSLKPEDTAVYYCAARGRWSTEYGYWGQGTQVTVSS” the “polyreactivity (PSR sort gate)” value was “low polyreactivity”. In the case of “QVQLVESGGRLVQAGGSLRLSCAASGRTFWFNDMGWYRQAPGKVRQLVAAISDTDGSTYYADSVKGRFTISRDNAKNSVYLQMNSLKPVDTAVYYCAPEAYYGYLYAYDYWGQGTQVTVSS”, the “polyreactivity (PSR sort gate)” value is reported as “low polyreactivity”. For “QVQLVESGGRLVQAGGSLRLSCAASGRTFYIYAMGWYRQAPGKERELVADISWSGGSTYYADSVKGRFTISRDNAKNTVYLQMNSLKPEDTAVYYCAADLYVYPNWYLYYYWGQGTQVTVSS”, the “polyreactivity (PSR sort gate)” value was “high polyreactivity”. With “QVQLVESGGRLVQAGGSLRLSCAASGSIFAVNAMGWYRQAPGKERELVAAIDWSDGITYYADSVKGRFTISRDNAKNTVYLKMNSLKPEDTALNYCAADATAYGWYVEQFSFYDNDYWGQGTQVTVSS” the “polyreactivity (PSR sort gate)” value was “high polyreactivity”.
